The experiment concerns the target T1, FcγRIIa H (FcγRIIa type H, His at position 131), extracellular domain with C-terminal His tag (human, UniProt P12318 34-217).
T1 construct: extracellular domain; also called FcgRIIa H; 2aH
T1 sequence (looked up): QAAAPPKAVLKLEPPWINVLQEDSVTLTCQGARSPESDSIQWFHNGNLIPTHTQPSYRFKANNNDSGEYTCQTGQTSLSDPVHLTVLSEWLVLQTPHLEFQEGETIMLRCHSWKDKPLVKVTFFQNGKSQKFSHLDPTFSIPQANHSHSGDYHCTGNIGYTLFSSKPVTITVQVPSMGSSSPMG
The experiment in a line: SPR Biacore, relative binding, GpH7-B3/GpL16-k0 (HoCon Ab)=100. As for the experimental part: Analysis of interaction between objective antibody and the FcγR was carried out using Biacore T100 (GE Healthcare). HBS-EP+ (GE Healthcare) was used as the running buffer, and the measurement temperature was set to 25° C. Chips produced by immobilizing the antigen peptide by the amine coupling method to a Series S Sencor Chip CM5 (GE Healthcare), or alternatively, chips produced by allowing preliminarily biotinylated antigen peptides to interact with and immobilize onto a Series S Sensor Chip SA (certified) (GE Healthcare) were used. Antibodies of interest were captured onto an antigen peptide-immobilized chip, and allowed to interact to each FcγR diluted with running buffer. To regenerate and repeatedly use the chip, the antibodies captured on the chip were washed off by reacting 10 mM glycine-HCl, pH 1.5.
For orientation: SPR reads the build-up and loss of mass on a sensor chip optically.

This passage reports Ho/Con_2aH results from patent US20150344570A1 (published 2015).

B1: GpH7-B3 variant K326_09D/GpL16-k0 (antibody, human IgG1, kappa)
heavy: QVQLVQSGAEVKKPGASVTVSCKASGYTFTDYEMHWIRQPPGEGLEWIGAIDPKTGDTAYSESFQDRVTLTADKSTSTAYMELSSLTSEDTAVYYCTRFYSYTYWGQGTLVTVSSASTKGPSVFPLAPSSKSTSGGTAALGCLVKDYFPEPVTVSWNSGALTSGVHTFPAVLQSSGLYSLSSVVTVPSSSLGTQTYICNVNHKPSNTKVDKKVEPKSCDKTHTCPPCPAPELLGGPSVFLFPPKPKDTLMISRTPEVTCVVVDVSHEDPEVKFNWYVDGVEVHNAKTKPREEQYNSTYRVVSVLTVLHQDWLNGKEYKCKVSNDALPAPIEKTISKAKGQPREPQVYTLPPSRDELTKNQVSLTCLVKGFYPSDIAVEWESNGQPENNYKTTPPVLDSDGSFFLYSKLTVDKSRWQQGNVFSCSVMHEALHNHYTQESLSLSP
light: DIVMTQSPLSLPVTPGEPASISCQASESLVHSNRNTYLHWYLQKPGQSPQLLIYKVSNRFSGVPDRFSGSGSGTDFTLKISRVEAEDVGVYYCSQNTHVPPTFGQGTKVEIERTVAAPSVFIFPPSDEQLKSGTASVVCLLNNFYPREAKVQWKVDNALQSGNSQESVTEQDSKDSTYSLSSTLTLSKADYEKHKVYACEVTHQGLSSPVTKSFNRGEC
notes: both H chains mutated; also called Ho Ab
For the molecule B1, the Ho/Con_2aH was 113 % of control.

B2: GpH7-B3 variant K334_04F/GpL16-k0 (antibody, human IgG1, kappa)
heavy: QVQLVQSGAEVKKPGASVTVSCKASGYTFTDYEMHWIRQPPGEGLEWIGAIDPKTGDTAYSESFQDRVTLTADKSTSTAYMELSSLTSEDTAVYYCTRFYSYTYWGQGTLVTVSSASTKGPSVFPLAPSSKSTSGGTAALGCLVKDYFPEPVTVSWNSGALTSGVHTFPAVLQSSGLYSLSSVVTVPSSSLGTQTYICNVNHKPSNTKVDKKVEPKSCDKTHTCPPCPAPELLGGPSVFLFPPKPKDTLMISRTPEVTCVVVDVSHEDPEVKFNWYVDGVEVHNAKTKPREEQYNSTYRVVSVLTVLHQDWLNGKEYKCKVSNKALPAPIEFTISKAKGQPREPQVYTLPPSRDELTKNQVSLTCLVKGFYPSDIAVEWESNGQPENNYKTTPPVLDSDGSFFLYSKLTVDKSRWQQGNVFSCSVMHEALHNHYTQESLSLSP
light: DIVMTQSPLSLPVTPGEPASISCQASESLVHSNRNTYLHWYLQKPGQSPQLLIYKVSNRFSGVPDRFSGSGSGTDFTLKISRVEAEDVGVYYCSQNTHVPPTFGQGTKVEIERTVAAPSVFIFPPSDEQLKSGTASVVCLLNNFYPREAKVQWKVDNALQSGNSQESVTEQDSKDSTYSLSSTLTLSKADYEKHKVYACEVTHQGLSSPVTKSFNRGEC
notes: as for B1
With B2, the Ho/Con_2aH was 103 % of control.

B3: GpH7-B3 variant K326_10E/GpL16-k0 (antibody, human IgG1, kappa)
heavy: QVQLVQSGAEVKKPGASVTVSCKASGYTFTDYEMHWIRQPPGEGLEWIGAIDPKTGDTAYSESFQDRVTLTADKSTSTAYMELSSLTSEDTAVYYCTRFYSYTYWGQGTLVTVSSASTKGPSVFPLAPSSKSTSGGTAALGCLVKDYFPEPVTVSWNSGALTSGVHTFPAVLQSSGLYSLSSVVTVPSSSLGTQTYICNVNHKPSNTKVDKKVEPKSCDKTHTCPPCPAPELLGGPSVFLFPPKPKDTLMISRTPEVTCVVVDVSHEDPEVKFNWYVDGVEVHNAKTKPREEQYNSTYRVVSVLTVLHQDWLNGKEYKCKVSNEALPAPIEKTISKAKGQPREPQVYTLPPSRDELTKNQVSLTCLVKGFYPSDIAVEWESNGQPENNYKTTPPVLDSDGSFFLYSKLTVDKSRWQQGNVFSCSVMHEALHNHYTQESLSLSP
light: DIVMTQSPLSLPVTPGEPASISCQASESLVHSNRNTYLHWYLQKPGQSPQLLIYKVSNRFSGVPDRFSGSGSGTDFTLKISRVEAEDVGVYYCSQNTHVPPTFGQGTKVEIERTVAAPSVFIFPPSDEQLKSGTASVVCLLNNFYPREAKVQWKVDNALQSGNSQESVTEQDSKDSTYSLSSTLTLSKADYEKHKVYACEVTHQGLSSPVTKSFNRGEC
notes: as for B1
Consider B3, for which the Ho/Con_2aH was 101 % of control.

B4: GpH7-B3 variant K334_07[ (read as K334_07I)/GpL16-k0 (antibody, human IgG1, kappa)
heavy: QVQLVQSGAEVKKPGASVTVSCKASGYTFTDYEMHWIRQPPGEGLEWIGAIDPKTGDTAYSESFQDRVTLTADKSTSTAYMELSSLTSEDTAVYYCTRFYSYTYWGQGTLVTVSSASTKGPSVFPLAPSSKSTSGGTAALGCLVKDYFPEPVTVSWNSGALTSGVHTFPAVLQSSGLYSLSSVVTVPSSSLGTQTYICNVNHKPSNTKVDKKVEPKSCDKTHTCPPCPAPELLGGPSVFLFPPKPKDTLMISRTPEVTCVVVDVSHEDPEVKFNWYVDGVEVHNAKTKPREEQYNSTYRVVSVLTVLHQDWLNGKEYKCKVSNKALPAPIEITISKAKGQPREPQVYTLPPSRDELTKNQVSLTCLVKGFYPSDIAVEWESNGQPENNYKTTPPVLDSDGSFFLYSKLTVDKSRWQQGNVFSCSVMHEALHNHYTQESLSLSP
light: DIVMTQSPLSLPVTPGEPASISCQASESLVHSNRNTYLHWYLQKPGQSPQLLIYKVSNRFSGVPDRFSGSGSGTDFTLKISRVEAEDVGVYYCSQNTHVPPTFGQGTKVEIERTVAAPSVFIFPPSDEQLKSGTASVVCLLNNFYPREAKVQWKVDNALQSGNSQESVTEQDSKDSTYSLSSTLTLSKADYEKHKVYACEVTHQGLSSPVTKSFNRGEC
notes: as for B1
For B4, the Ho/Con_2aH is 116 % of control.

B5: GpH7-B3 variant K334_08L/GpL16-k0 (antibody, human IgG1, kappa)
heavy: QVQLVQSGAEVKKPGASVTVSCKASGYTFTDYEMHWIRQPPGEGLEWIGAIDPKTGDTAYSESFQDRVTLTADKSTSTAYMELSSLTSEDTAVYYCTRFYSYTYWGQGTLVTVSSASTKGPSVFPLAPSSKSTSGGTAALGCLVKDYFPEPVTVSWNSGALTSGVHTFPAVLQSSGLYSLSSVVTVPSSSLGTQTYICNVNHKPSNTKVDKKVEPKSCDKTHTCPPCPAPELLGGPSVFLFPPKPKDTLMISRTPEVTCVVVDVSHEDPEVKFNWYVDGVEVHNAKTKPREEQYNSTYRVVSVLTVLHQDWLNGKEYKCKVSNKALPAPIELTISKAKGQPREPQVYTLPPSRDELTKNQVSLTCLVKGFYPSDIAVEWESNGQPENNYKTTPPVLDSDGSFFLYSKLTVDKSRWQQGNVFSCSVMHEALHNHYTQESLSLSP
light: DIVMTQSPLSLPVTPGEPASISCQASESLVHSNRNTYLHWYLQKPGQSPQLLIYKVSNRFSGVPDRFSGSGSGTDFTLKISRVEAEDVGVYYCSQNTHVPPTFGQGTKVEIERTVAAPSVFIFPPSDEQLKSGTASVVCLLNNFYPREAKVQWKVDNALQSGNSQESVTEQDSKDSTYSLSSTLTLSKADYEKHKVYACEVTHQGLSSPVTKSFNRGEC
notes: as for B1
B5: the Ho/Con_2aH was 103 % of control.

B6: GpH7-B3 variant K326_19Q/GpL16-k0 (antibody, human IgG1, kappa)
heavy: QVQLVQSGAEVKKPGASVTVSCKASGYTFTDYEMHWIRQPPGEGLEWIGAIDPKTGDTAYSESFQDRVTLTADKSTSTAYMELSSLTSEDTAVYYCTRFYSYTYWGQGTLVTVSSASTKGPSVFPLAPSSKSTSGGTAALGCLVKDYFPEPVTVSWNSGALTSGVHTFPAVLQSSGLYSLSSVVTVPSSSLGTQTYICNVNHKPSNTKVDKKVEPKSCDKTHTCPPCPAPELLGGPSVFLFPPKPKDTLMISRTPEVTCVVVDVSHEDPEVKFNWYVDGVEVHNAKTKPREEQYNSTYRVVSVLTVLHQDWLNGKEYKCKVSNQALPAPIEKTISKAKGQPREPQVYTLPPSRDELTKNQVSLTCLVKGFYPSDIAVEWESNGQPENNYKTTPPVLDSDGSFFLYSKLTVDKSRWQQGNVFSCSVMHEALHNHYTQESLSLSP
light: DIVMTQSPLSLPVTPGEPASISCQASESLVHSNRNTYLHWYLQKPGQSPQLLIYKVSNRFSGVPDRFSGSGSGTDFTLKISRVEAEDVGVYYCSQNTHVPPTFGQGTKVEIERTVAAPSVFIFPPSDEQLKSGTASVVCLLNNFYPREAKVQWKVDNALQSGNSQESVTEQDSKDSTYSLSSTLTLSKADYEKHKVYACEVTHQGLSSPVTKSFNRGEC
notes: as for B1
For B6, the Ho/Con_2aH was 100 % of control.

B7: GpH7-B3 variant K334_03V/GpL16-k0 (antibody, human IgG1, kappa)
heavy: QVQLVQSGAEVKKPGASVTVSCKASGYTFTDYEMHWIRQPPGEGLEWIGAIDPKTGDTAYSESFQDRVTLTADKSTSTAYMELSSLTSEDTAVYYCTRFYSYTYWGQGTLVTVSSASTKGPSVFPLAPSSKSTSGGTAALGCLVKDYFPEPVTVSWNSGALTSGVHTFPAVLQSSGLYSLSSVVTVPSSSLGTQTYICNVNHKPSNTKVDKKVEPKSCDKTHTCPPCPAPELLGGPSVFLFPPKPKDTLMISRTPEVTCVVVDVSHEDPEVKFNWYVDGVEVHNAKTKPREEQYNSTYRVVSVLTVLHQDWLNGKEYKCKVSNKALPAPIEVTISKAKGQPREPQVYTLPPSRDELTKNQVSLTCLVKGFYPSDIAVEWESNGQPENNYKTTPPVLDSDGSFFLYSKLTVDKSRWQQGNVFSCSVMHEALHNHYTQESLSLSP
light: DIVMTQSPLSLPVTPGEPASISCQASESLVHSNRNTYLHWYLQKPGQSPQLLIYKVSNRFSGVPDRFSGSGSGTDFTLKISRVEAEDVGVYYCSQNTHVPPTFGQGTKVEIERTVAAPSVFIFPPSDEQLKSGTASVVCLLNNFYPREAKVQWKVDNALQSGNSQESVTEQDSKDSTYSLSSTLTLSKADYEKHKVYACEVTHQGLSSPVTKSFNRGEC
notes: as for B1
On to B7, for which the Ho/Con_2aH was 111 % of control.

B8: GpH7-B3 variant K326_14T/GpL16-k0 (antibody, human IgG1, kappa)
heavy: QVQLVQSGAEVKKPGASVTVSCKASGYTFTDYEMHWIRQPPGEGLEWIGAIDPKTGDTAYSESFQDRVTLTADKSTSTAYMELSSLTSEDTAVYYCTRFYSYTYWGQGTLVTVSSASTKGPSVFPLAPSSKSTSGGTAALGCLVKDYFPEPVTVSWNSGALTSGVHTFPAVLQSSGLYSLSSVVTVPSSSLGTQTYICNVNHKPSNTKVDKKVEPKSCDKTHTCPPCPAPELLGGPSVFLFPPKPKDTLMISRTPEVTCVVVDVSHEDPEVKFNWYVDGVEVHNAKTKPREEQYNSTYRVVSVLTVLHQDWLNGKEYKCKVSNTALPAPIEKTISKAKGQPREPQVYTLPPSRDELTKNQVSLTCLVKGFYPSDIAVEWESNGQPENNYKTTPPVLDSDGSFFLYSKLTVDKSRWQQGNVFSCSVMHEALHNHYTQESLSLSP
light: DIVMTQSPLSLPVTPGEPASISCQASESLVHSNRNTYLHWYLQKPGQSPQLLIYKVSNRFSGVPDRFSGSGSGTDFTLKISRVEAEDVGVYYCSQNTHVPPTFGQGTKVEIERTVAAPSVFIFPPSDEQLKSGTASVVCLLNNFYPREAKVQWKVDNALQSGNSQESVTEQDSKDSTYSLSSTLTLSKADYEKHKVYACEVTHQGLSSPVTKSFNRGEC
notes: as for B1
As for B8, the Ho/Con_2aH is 118 % of control.
